Measurements from PMC5435683, “Crystal structure of TAZ-TEAD complex reveals a distinct interaction mode from that of YAP-TEAD complex” (Scientific Reports, 2017).

How the values were obtained:
[1] = biological target: the molecule itself; experiment: crystal structure; mTAZ (25-57) with mTEAD4 (210-427), co-expressed and co-purified; hanging drops, 6% PEG 10000, 0.05 M magnesium acetate, 0.1 M tri-sodium citrate pH 5.2, 20 °C; 2.9 Å; 4 TAZ and 4 TEAD in the asymmetric unit, two binding modes (1:1 and 2:2)
[2] = biological target: T1, mTEAD4 (residues 210-427) Cys360Ser (mouse, UniProt Q62296 210-427, Cys360 replaced with serine); experiment: SEC; analytical gel filtration, Superdex 75 10/300 GL; control, cross-linked, and cross-linking reversed with 25 mM DTT for 1 hour at 25 °C; settings: both partners purified
T1 construct: TEAD4, mouse, residues 210-427, surface-exposed Cys360 replaced with serine; also called TEAD Cys360 to serine; source: E. coli BL21 (DE3), co-expressed with mTAZ (25-57) Asn33Cys, purified as a complex as the wild type

[3] = biological target: the molecule itself; experiment: cross-linking + SEC-MALS; specific disulfide cross-linking of TAZ Asn33Cys with 1.5 mM CuCl2 and 5 mM phenanthroline, 1 hour at 25 °C, stopped with 50 mM EDTA; Superdex 75 5/150 GL, 20 mM Tris pH 8, 150 mM sodium chloride

T1 sequence (Q62296 210-427 C360S): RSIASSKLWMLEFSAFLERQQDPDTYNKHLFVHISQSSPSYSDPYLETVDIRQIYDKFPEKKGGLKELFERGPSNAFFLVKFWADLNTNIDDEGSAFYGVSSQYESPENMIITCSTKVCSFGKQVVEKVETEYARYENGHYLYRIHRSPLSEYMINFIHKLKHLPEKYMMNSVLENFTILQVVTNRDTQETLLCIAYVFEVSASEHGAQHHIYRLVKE

| stoichiometry N [2] | Binder | binding result [1] | stoichiometry N [3] |
| --- | --- | --- | --- |
| – | DTDLEALFNSVMNPKPSSWRKKILPESFFKEPD (domain or fragment, mouse, UniProt Q9EPK5 25-57, looked up, TAZ (WWTR1), mouse, residues 25-57 (helix α1, 13-residue loop, helix α2); Cloned with mTEAD4 in a modified pETDuet-1 vector; also called mouse TAZ; not shown: His6, N-terminal, cleaved) [mTAZ (residues 25-57)] | binds | – |
| 1 | DTDLEALFCSVMNPKPSSWRKKILPESFFKEPD (domain or fragment, mouse, UniProt Q9EPK5 25-57, looked up, TAZ (WWTR1), mouse, residues 25-57, Asn33 replaced with cysteine for disulfide cross-linking; In the cross-linked sample Cys33 of two copies is joined by a disulfide (copper phenanthroline); in the control and DTT samples it is not; also called TAZ Asn33Cys; source: E. coli BL21 (DE3), co-expressed with mTEAD4 (210-427) Cys360Ser, purified as a complex as the wild type; not shown: His6, …) [mTAZ (residues 25-57) Asn33Cys] | – | 2 |
